Laboratory results from the nanobody polyreactivity screen of Harvey et al. (2022).

Assay: yeast display, Sf9 membrane polyspecificity reagent, FACS + sequencing; frameworks hold sequencing errors
Procedure, shortened: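 After 36–48 hours of galactose induction, yeast (Saccharomyces cerevisiae BJ5465) displaying a synthetic nanobody library were stained at 4 °C for 1 hour with 10% biotinylated, detergent-solubilized Sf9 membrane reagent. Streptavidin microbeads enriched the stained cells before FACS sorting into low and high (top ~1%) gates on anti-HA and streptavidin fluorescence. Each clone's polyreactivity label reflects its gate of origin.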

Sequence	polyreactivity (PSR sort gate)
EEELVDSGGGLVQAGGSLRLSCSAYGSTFRDYAMGWYRQAPGKERELVAAITSGGTTDYADSVKGRFPISRDNAKNTVYLQMNSLKPEDTAVYYCNKDGVVAGYQYDYWGQGTQVTVSS	low polyreactivity
EEELVESGGGLVQAGCSLRLSCAATGSTIIWNAMGWYIQAPGKERELVAAITRSGGRTYYADSVKGRFTISRDNAKNTVYLLMNSLIPEDTAVYYCAAVIWGYYYGGKYVYYYPYGYWGQGTQVTVSS	high polyreactivity
EEELVESGGGLVQAGGSLRLSCAASGRTFARNAMGWYRQAPGKERELVAGINFSGGNTYYADSVKGRFTISRDNAKNTVYLQMNSLKPEDTAVYYCAARRYWEGDYWGHGTQVTVSS	low polyreactivity
EEELVESGGGLVQAGGSLRLSCAASGSIFVVNAMGWYRQAPGKERELVAAISRGGITNYADSVKGRFTISRDNAKNTVYLQMNSLKPEDTAVYYCNARGSRWVKPERDYWGQGTQVTVSS	low polyreactivity
EVQHVESGGGLVQAGGSLRLSCAASGSTFYENAMGWYRQAPGKERELVAAINWSGGRTYYADSVKGRFTISRDNAKNTVNLQMNCLKQEYTAVYYCATREYRYAHSYYWGQGTQVTVSS	high polyreactivity
EVQLVESGGGLVQAGGSLRLSCAASGYSFSYNTMGWYRQAPGKERELVAAITRSGGSTYYADSVKGRFTISRDNAKNTVYLQMNSLKPEDTAVYYCNRVGWRGLKKANYWGQGTQVTVSS	high polyreactivity
EVQLVESGGGLVQPGGSLRLSCAASGYIYRRYRMGRYRQAPGKGREFVAAISGGSSTNYADSVKGRFTNSRDNSKNTVYLQMNSLRAEDTAVYYCAAYKIDSDPRVYWGQGTQVTVSS	low polyreactivity
FVQAGGSLRLTCAASGSTFYGNAMGWYRQATGKERELVAGITGDGGSTYYADSVKGRFTISRDNAKNTVYLQMNSLKPEDTAVYYCAVDVIVLGQWPRQLDEFDYWGQGTQVTVSS	low polyreactivity
HDQHVESGGGLVQAGGSLRLSCAASGFTFYFYTMGWYRQAPGKERELVAAITGSGGSTYYADSVKARFTFSRDNAKNTVYLQMNSLKPEDTAVYYCAASYYPERVATWRGYYYWGQGTQVTVSS	high polyreactivity
HVHLVESGGGLVQAGGSLPLSCAASGFIISHYTMGWYRQAPGKERELVAGISWSGGNTYYADFVKGRFTISRDHAKNTVYLQMNSLKPEDTAVYYCNADWIGVPLAYDYWGQGTQVTVSS	low polyreactivity
HVQHVESAGGLVQAGGSLRLSCAASGSIFTYNALGGYIQAPGKERELVAAIDYSGGSTYYADSVKGRFTISRDNAKNTVYLQMNSLKPEDTAVYYCAAPWVPYPGYSLYGYDYWGQGTQVTVSS	low polyreactivity
HVQHVESGGGLVQAGGSLRLSCAASGRIFRPNAMGRYRQAPGKERELVAAITSNGGRTYYADSVKGRFTISRDNAKTTVYLQMTSQKPEDTAVYYCNAAPFRSGYGYWGQGTQVNVSS	high polyreactivity
HVQLEESGGGLVQAGGSLRLSCAASGFTFNRYAMGWYRQAPGKERELVAAISSGGRTYYADSVKGRFTISRDNAKNTVYLQMNRLKPDDTAVYYCAADWSLYSHEFDYWGQGTQVTVSS	high polyreactivity
HVQLGESGGGLVQAGGSLRLSCAASGFIFDVYAMGWYRQAPGKERELVAAISSSGGRTYYADSVKGRFTISRDNAKNTVYLQMNSLKPEDTAVYYCAAKTHSRTKVYTADYWGQGTQVTVSS	high polyreactivity
HVQLQESGGGLVQAGGSLRLSCAASGSIFQATYMGWYRQAPGKEREFVASITYGSITNYADSVKGRFTIGRDNAKDTLYLQMNSLKPEDTAVYYCAVDRHYIPAFHYWGQGTEVTVSS	low polyreactivity
HVQLQESGRRPGAAGGSPRMSCAASGNIYWVAVMGRYRQAPGEERELVASIGFGCTTYYADSVKCRFTISRDNAKNTVYLQMISLKPEDTAVYYCAAPHYDWGELDYWGQGTQVPVSS	low polyreactivity
HVQLQESGVGLVQAGGSLRLSCAASGTISQEYWMGWYRQAPGKEREFVAAIGLGSNTNYADSLKGRFTISRDNSTNTVFLQMNSLKPEDTAVYYCAVSVWQYSDHVYRGQGTQVTVSS	low polyreactivity
HVQLVESAGGLVPAGGSLRLSCAASGFIVWWYPMGWYRQAPGKERELVASITRGGRTNYADSVKGRFTISRDNAKNTVYLHMNSLKPEDTAVYYCAADVLLSRSNTPQRPSRLYYWGQVTQVTVSS	high polyreactivity
HVQLVESGGGLVQAGASLRLSCAASGRIFGRNAMGWYRQAPGKERELVAAISGNGGSTYYADSVKGRFTISRDIAKNTVYLQMNSLKPEDTAGYYCATKYFSRMDYWGQGTQVTVSS	high polyreactivity
HVQLVESGGGLVQAGGSLRFSCAASVSTLRWNAMGWYRQAPAKEREMVAAITYSGGSTYYADSVKGLFTISRDNAKNTVYLQMNSLKPEDTAVYYCAADSYRYRPGYGPVLYDYWGQGTQVTVSS	high polyreactivity
HVQLVESGGGLVQAGGSLRLSCAASGFIFKPYDMGLYRQAPGKERELVAAISWTGTSTYYADSVKGRFTISRDNAKNTVYLQINSLKPEDTAVFYCAKRWSAGAQHGFDYWGQGTQVTLSS	low polyreactivity
HVQLVESGGGLVQAGGSLRLSCAASGFIFQSYAMGWYRQAPGKERELVASISASGGSTYYADSVKGRFTISRDNAKNTVYLQMNSLKPEDTAVYYCAAGYWSYWSLRMDYWGQGTQVTVSS	high polyreactivity

Sequence	polyreactivity (PSR sort gate)
HVQLVESGGGLVQAGGSLRLSCAASGFIIGYYAMGWYRQAPGKERELVASITWSTTSTYYADSVKGRFTISRDNAKNTVYLQMNSLKPEDTAVYYCAADLQSKLPSSIYIGDYWGQGTQVTVSS	low polyreactivity
HVQLVESGGGLVQAGGSLRLSCAASGFTFARYAMGWYRQAPGKERDLVATITRSGDSTNYADSVKGRFTISRDNAKNTVYLQMNSLKPEDTAVYYCNRRYPIWYRTMNYWGQGTQVTVSS	high polyreactivity
HVQLVESGGGLVQAGGSLRLSCAASGFTSYLYTMGWYRQAPGKERELVAAISNSGGNTYYADSVKGRFTISRDNAKNTVYLQMNSLKPEDTAVYYCAARLFAAKYRYGYWGQGTQVTVSS	high polyreactivity
HVQLVESGGGLVQAGGSLRLSCAASGIIFITNAMGWYRQAPGKERELVAAISSTVSTYYADSVKGRFTISRDKAKNTVYLQMNRLKPADTAVYYCAAEWGLTQGESIYDYWGQGTQVTVSS	low polyreactivity
HVQLVESGGGLVQAGGSLRLSCAASGIIFNLYAMGWYRQAPVKERELFAAISWSGGSTYYADSVKGRFTISRDNAKNTVYLKMNSLKPEDTAVYYCAAQRSVFKSFRTTYVRYDYWGQGTQVTVSS	high polyreactivity
HVQLVESGGGLVQAGGSLRLSCAASGLIFKRYAIGGYRKAPGKERELVAAISYSGGSTYYEDSVKGRFTISRDYAKNTVYLQMNSLKPEDTAVYYCNAQSYRSDSAYHYKYDYWGQGTQVTVSS	high polyreactivity
HVQLVESGGGLVQAGGSLRLSCAASGLTFQYNAMGWYRQAPGKERELVATISQSGGSTYYADSVKGRFTISRDNAKNTVYLQMNSLKPEDTAVYYCAAYRAWTWRIRYDYWGQGTQVTVSS	low polyreactivity
HVQLVESGGGLVQAGGSLRLSCAASGRIFGAYAMGWYRQAPGKEREFVAAITSRGGNTYYADSVKGRFTISRDNAKNTVYLQMNSLIPEDTAVYYCAARHDKRRQYYVGQSAFDYWGQGTQVTVSS	low polyreactivity
HVQLVESGGGLVQAGGSLRLSCAASGRIFPGYAMGWYRQAPGKERELVAGISNDASTNYADSVKGRFTISRDNAKNTVYLQMNSLKPEDTAVYYCAAEIYYLSVPRYDYWGQGTQVTVSS	low polyreactivity
HVQLVESGGGLVQAGGSLRLSCAASGRIFSVYTMGWYRQAPGKDRELVATISSGGRTNYADSVKGRFTISRDNAKNTVYLQMNSLKPEDTAVYYCAAVPYGFVGYDDYWGQGTQVTVSS	low polyreactivity
HVQLVESGGGLVQAGGSLRLSCAASGRIFYYNGMGWYRPAPGKERELVAAITPSDTSTYYAVSVKGRFTISRDNAKNTVYLQMNSLKPEDTAVYYCNADYDNHEMDYWGQGTQVTVSS	low polyreactivity
HVQLVESGGGLVQAGGSLRLSCAASGRILRRNAMGWYRQAPGKEREFVAAITWRGGSTYYADSVKGRFTISRDNAKNTVYLQMNSLKPEDTAVYYCAADTYSVEYVLPYYYWGQGTQVTVSS	high polyreactivity
HVQLVESGGGLVQAGGSLRLSCAASGRNFIYNAMGWSSPAPGTDRELVAAINRSGVSTHYADSVKGRFTISRDNAKKTVYLQMNSLKPEDTAVEYCARTVYGARSYDYWGQGTQVTVSS	low polyreactivity
HVQLVESGGGLVQAGGSLRLSCAASGRTFVVYAMGWDRQAPGKERELVAAITSSGGSTYYADSVKGRFTISRDNAKNTVYLQMNSLKPEDTAVYYCNRVYVRAGVSVAYNYWGQGTQVTVSS	high polyreactivity
HVQLVESGGGLVQAGGSLRLSCAASGSIFIKYAMGWYRQAPGKERELVAAISRRGGSTYYADSVKGRFTISRDNAKNTVYLQMNSLKPEDTAVYYCAAVNIRFGYWGQGTQVTVSS	high polyreactivity
HVQLVESGGGLVQAGGSLRLSCAASGSTFYNNAMGWTRQAPGKERELVAAITSSVGSTQYADSVKGRFTISRDKAKNTVYLPMNSLKPADTAVYYCAATFGYGRYGYWGQGTQVTVSS	low polyreactivity
HVQLVESGGGLVQAGGSLRLSCAASGSTLYWNAIGWYRQAPGKEMELVASITSSGGSTYYADSVKGRFTISRDNAKNTVYLQMNSLKPEDTAVYYCATESWWRYSEYYYWGQGTQVTVSS	low polyreactivity
HVQLVESGGGLVQAGGSLRLSCAASGTFTYYAMGWYRQAPGKERELVAAITWRGGNTYYADSVKGRFTISRDNAKNTVYLQMNSLKPEDTAVYYCATDYWYIRWGGYYWGQGTQVTVSS	low polyreactivity
HVQLVESGGGLVQAGGSLRLSCAASGYILDRNAMGWYRQAPGKESELVAVISWGGTRTYYADSVKGRFTISRDNAKNTVYLQMNSLKPEVTAVYYCARYPYYYGYAGRYDYWGQGTQVTVSS	high polyreactivity
HVQLVESGGGLVQAGGSLRVSCAASGSILTRNAMGWYRQAPGKERELVAAITGSGGRTYYADSVKGRFTISRDNAKNTVDLQMNSLKPEDTAVYYCAAGWRFGRYSGDYWGQGTQVTVSS	high polyreactivity
HVQLVETGGGLVQAGGSLRLSCAASGSTFYIYAMGCYRPAPGKEREFVAAIDFSGSSTYADSVKGRFTISRDNAKNTVYLQMNSLKPEDTAVYYCSARWYLTGGWTWVSFSHDYWGQGTQVTVSS	low polyreactivity
